Reference: patent publication US10876098B2, “Polynucleotide, host cell and a method to recombinantly produce the protein encoded by said polynucleotide having peroxygenative activity” (CONSEJO SUPERIOR DE INVESTIGACIONES CIENTIFICAS (CSIC), priority 2015, dated 2020)

T1: Agrocybe aegerita peroxygenase AaeUPO1 variant SoLo (JaWa + F191S: V57A, L67F, V75I, F191S, G241D, I248V, R257K, F311L), SEQ ID NO: 42 (Cyclocybe aegerita, UniProt B9W4V6, F234S/F354L/G284D/I291V/L110F/R300K/V100A/V118I)
T1 sequence (B9W4V6 44-371 V100A/L110F/V118I/F234S/G284D/I291V/R300K/F354L): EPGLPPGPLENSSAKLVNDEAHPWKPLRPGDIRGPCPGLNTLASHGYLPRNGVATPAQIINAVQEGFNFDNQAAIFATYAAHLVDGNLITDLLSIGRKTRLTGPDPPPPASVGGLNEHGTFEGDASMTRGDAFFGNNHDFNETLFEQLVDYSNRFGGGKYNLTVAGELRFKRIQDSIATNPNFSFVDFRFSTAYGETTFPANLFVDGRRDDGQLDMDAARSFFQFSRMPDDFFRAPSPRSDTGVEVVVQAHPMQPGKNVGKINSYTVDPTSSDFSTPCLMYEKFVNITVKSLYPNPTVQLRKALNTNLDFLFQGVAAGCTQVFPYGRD


Assays:
[1] = biological target: T1, Agrocybe aegerita peroxygenase AaeUPO1 variant SoLo (JaWa + F191S: V57A, L67F, V75I, F191S, G241D, I248V, R257K, F311L), SEQ ID NO: 42; test: Kinetic constants, SoLo variant; details: SoLo vs parental JaWa, ABTS
Excerpt: In order to calculate the values of Km and kcat, values of Vmax were represented at substrate concentrations and the hyperbole function was adjusted (using SigmaPlot 10.0, wherein the parameter a is equal to kcat and the parameter b, to Km).

[2] = Thermostability assay (T50), culture supernatants, residual activity with ABTS; type: physicochemical; details: versus PaDa-I variant
Method: An individual S. cerevisiae colony was selected with the corresponding clone (grown in a SC drop-out minimal medium plate: 100 mL of 6.7% yeast nitrogen base, 100 mL of 19.2 g/L uracil-free amino acid supplement, 100 mL of 20% glucose, 1 mL of 25 g/L chloramphenicol and ddH2O up to 1,000 mL) was inoculated in 2 mL of selective minimal medium (as in the SC plate medium, but with 20 g of bacto agar and rafinose instead of galactose) and was incubated for 48 hour at 30° C. and 220 RPM. An aliquot of this culture was taken such that, upon inoculating it in 5 mL of new minimal medium, optical density at 600 nm would have a value of 0.25 (optical density, OD600=0.25). This starter was incubated until completing two full growth cycles (between 6 and 8 hours), at which time 1 mL of cells were taken to inoculate 9 mL of expression medium in a 100 mL flask (OD600=0.1). This culture of each clone was incubated for 72 hours at 25° C. and 220 RPM (at peak UPO activity; OD600=25-30), the cells were separated by centrifugation (10 minutes at 4,500 RPM and 4° C.) and supernatant was filtered (using a glass and nitrocellulose filter with a pore size of 0.45 μm). Appropriate dilutions of the supernatants were prepared so that aliquots of 20 μL would give rise to a linear response in kinetic mode. 50 μL of supernatant were used for each point in a temperature gradient created by means of thermocyclator, from 30 to 80° C. After incubating for 10 minutes, the aliquots were cooled in ice for 10 minute and tempered at room temperature for 5 minutes. […] The thermostability values were calculated in accordance with the ratio between the residual activities incubated at different temperatures and the value of initial activity at room temperature. The value of T50 was determined as the value of the temperature at which the protein loses 50% of it initial activity after incubating for 10 minutes.
An individual S. cerevisiae colony was selected with the corresponding clone (grown on a SC drop-out minimal medium plate: 100 mL of 6.7% yeast nitrogen base, 100 mL of 19.2 g/L uracil-free amino acid supplement, 100 mL of 20% glucose, 1 mL of 25 g/L chloramphenicol and ddH2O up to 1,000 mL), was inoculated in 3 mL of selective minimal medium (like the SC plate medium, but with 20 g of bacto agar and rafinose instead of galactose) and incubated for 48 hours at 30° C. and 220 RPM. […] The thermostability values were calculated in accordance with the ratio between the residual activities incubated at different temperatures and the value of initial activity at room temperature. The value of T50 was determined as as the temperature value at which the protein loses 50% of its initial activity after incubating for […].

[3] = 4-AAP assay with propranolol in the presence of ascorbic acid (peroxygenase activity); type: biochemical; details: propranolol, in the presence of ascorbic acid
Method: (§1) FIG. 9 Assay of 4-AAP (4-aminoantipyrine) with different pure UPO variants (AaeUPO1, PaDa-1 and JaWa). […] Each reaction was performed in triplicate.
(§2) The mother plates were centrifuged (Eppendorf 5810R centrifuge, Germany) for 10 minutes at 3,500 RPM and 4° C. 20 μL of supernatant of these mother plates were transferred to two replica daughter plates with the help of a Freedom EVO liquid-handling robot (Tecan, Switzerland).
(§3) Without ascorbic, the plates were incubated for 30 minutes and with ascorbic for 60 minutes. […] The plates were briefly agitated and absorbance measured at 530 nm, using a plate reader for such purpose ([…]ax Plus 384, Molecular Devices, USA). The values were normalised against the parental of each plate. To rule out false positives, re-screenings were carried out, in addition to a third re-screening wherein kinetic stability was determined (T50) (P. Molina-Espeja, et al. Appl. Environ. Microbiol. 2014. 80, 3496-3507).

[4] = 4-AAP assay with propranolol in the absence of ascorbic acid (peroxidase activity on the product); type: biochemical
Method: as §1, §2, §3

[5] = Propranolol transformation reaction analysed by HPLC-PDA; type: biochemical; details: absence of ascorbic acid
Method: FIG. 13 Chromatogram showing the enzyme reactions.
(§4) The reactions were analysed by means of chromatography in reverse phase (HPLC). The equipment was composed of a tertiary pump (Varian-Agilent Technologies, USA) coupled to an autosampler (Merck Millipore, MA, USA); for the separation, a Zorbax Eclipse plus C18 column (15 cm×4.6 cm) at 40° C. was used and the detection was performed using a photodiode detector (PDA) (Varian, Agilent Technologies, USA). The mobile phase selected was a gradient from 10% methanol and 90% ddH2O (in both cases with 0.1% of acetic acid) up to 90% methanol and 10% ddH2O at a flow rate of 0.8 mL/min. The reaction was quantified at 280 nm (based on HPLC standards). […] The standard deviations were less than 5% in all cases.

[6] = Turnover with 5′-hydroxypropranolol as substrate, HPLC; type: biochemical; details: 0.03 μM enzyme, 0.4 mM 5′-hydroxypropranolol, 2 mM H2O2, absence of ascorbic acid
Method: FIG. 14 Turnover rates of AaeUPO, JaWa and SoLo. […] The disappearance of the product 5′-hydroxypropranolol can be observed due to the formation of its corresponding quinone by means of the peroxidase activity of the enzyme.
as §4

[7] = Total turnover number (TTN) for synthesis of 5′-hydroxypropranolol from propranolol; type: biochemical
Method: FIG. 15 Calculation of the total turnover number (TTN) of AaeUPO and SoLo.
as §4

| Molecule | affinity to the substrate with respect to its parental [1] | increase in thermostability (T50) with respect to PaDa-I [2] | peroxygenase activity on microplate higher than its parental (JaWa) [3] | decrease in peroxidase activity relative to parental (JaWa) [4] | regioselectivity against 5′-hydroxypropranolol ([5]; 0.03 μM enzyme, 4 mM propranolol, 2 mM H2O2) | amount of 5′-hydroxypropranolol produced ([5]; compared among AaeUPO, PaDa-I, JaWa, SoLo) | 5′-hydroxypropranolol maintained without oxidising [6] | TTNs, With ascorbic acid ([7]; 0.03 μM enzyme, propranolol, 2 mM H2O2 added every 10 minutes, 4 mM ascorbic acid) | TTNs, Without ascorbic acid ([7]; 0.03 μM enzyme, propranolol, 2 mM H2O2 added every 10 minutes, absence of ascorbic acid) | increase in TTN for synthesis of 5′-hydroxypropranolol versus wild AaeUPO ([7]; absence of antioxidants) |
| --- | --- | --- | --- | --- | --- | --- | --- | --- | --- | --- |
| CCn1c(=NN=c2sc3cc(S(=O)(=O)O)ccc3n2CC)sc2cc(S(=O)(=O)O)ccc21 [ABTS, 2,2′-azino-bis(3-ethylbenzothiazolin-6-sulfonic acid)] | three fold worse |  |  |  |  |  |  |  |  |  |
| SoLo: JaWa variant with added mutation F191S, SEQ ID NO: 42 (protein) MKYFPLFPTLVYAVGVVAFPDYASLAGLSQQELDAIIPTLEAREPGLPPGPLENSSAKLVNDEAHPWKPLRPGDIRGPCPGLNTLASHGYLPRNGVATPAQIINAVQEGFNFDNQAAIFATYAAHLVDGNLITDLLSIGRKTRLTGPDPPPPASVGGLNEHGTFEGDASMTRGDAFFGNNHDFNETLFEQLVDYSNRFGGGKYNLTVAGELRFKRIQDSIATNPNFSFVDFRFSTAYGETTFPANLFVDGRRDDGQLDMDAARSFFQFSRMPDDFFRAPSPRSDTGVEVVVQAHPMQPGKNVGKINSYTVDPTSSDFSTPCLMYEKFVNITVKSLYPNPTVQLRKALNTNLDFLFQGVAAGCTQVFPYGRD |  | 2 °C | 30% | more than two fold | 99% | produce the largest amount of 5′-hydroxypropranolol | approximately 50% | 62,000 | 45,000 | 15 fold |
